US20180086816A1

Biological target: prolactin-receptor on NB2-11 cells (rat lymphoma cells) (rat (NB2-11 rat lymphoma cells)) (UniProt P05710)
Test: cell-based or functional assay

Chain of UniProt P05710 (P05710 20-610): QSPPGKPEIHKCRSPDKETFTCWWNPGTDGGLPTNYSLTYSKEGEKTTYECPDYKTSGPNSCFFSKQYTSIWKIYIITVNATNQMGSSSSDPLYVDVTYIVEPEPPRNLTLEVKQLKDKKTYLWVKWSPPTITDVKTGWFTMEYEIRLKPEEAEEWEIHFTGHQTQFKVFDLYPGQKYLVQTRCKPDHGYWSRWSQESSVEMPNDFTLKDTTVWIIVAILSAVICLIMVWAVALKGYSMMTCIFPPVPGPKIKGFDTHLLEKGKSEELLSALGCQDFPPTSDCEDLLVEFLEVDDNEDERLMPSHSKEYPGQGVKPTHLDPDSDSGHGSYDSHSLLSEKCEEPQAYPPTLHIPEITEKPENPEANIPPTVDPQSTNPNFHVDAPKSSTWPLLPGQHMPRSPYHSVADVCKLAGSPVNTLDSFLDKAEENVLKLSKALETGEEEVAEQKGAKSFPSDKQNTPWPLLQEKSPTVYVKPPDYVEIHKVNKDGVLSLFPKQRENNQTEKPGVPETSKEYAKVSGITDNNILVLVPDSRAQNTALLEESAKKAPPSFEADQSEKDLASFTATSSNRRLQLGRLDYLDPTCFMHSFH

- NB2-11 cell proliferation, WST formazan absorbance (OD), dose response 0.039: 593
- NB2-11 cell proliferation, WST formazan absorbance (OD), dose response 0.059: 684
- NB2-11 cell proliferation, WST formazan absorbance (OD), dose response 0.088: 858
- NB2-11 cell proliferation, WST formazan absorbance (OD), dose response 0.132: 1050
- NB2-11 cell proliferation, WST formazan absorbance (OD), dose response 0.198: 1290
- NB2-11 cell proliferation, WST formazan absorbance (OD), dose response 0.296: 1570
- NB2-11 cell proliferation, WST formazan absorbance (OD), dose response 0.444: 1800
- NB2-11 cell proliferation, WST formazan absorbance (OD), dose response 0.667: 1970
- NB2-11 cell proliferation, WST formazan absorbance (OD), dose response 1: 2110
Substance: CTP modified hGH (hGH with one CTP at the N terminus and two CTP at the C terminus, expressed in HeLa cells) (from UniProt P0DN86 138-165; P01241 27-217; P0DN86 138-165; P0DN86 138-165)
